Measured values from patent US9018171B2, “Uses of an immunomodulatory protein (GMI) from Ganoderma microsporum” (Mycomagic Biotechnology Co., Ltd., priority 2010, dated 2015).
Where two headings read alike, the source gives them in different places.

What was measured:
M14 = assay: NCI60 in vitro screening, Melanoma; type: cell-based
RXF 393 = assay: NCI60 in vitro screening, Renal Cancer; type: cell-based
OVCAR-5 = assay: NCI60 in vitro screening, Ovarian Cancer; type: cell-based
MDA-MB-468 = assay: NCI60 in vitro screening, Breast Cancer; type: cell-based
A549 cells = assay: Actin staining; type: cell-based, human
Method: A549 cells (1×10^4 cells/well) were seeded onto 24 wells with coverslip. A549 cells were pretreated with various concentrations of GMI (2, 4, 8 μg/ml) for 1 h before being stimulated with 10 ng/mL EGF for 23 h. A549 cells treated with or without EGF were stained with Texas Red®-X phalloidin and Alexa Fluor 488 DNase I conjugate to detect F-actin (red) and G-actin (green).
Cells were washed twice with PBS and fixed in a 3.7% paraformaldehyde-PBS solution for 10 min at room temperature. After two additional washes with PBS, cells were permeabilized with a solution of 0.1% Triton X-100 in PBS for 3 to 5 min and washed again with PBS. Texas Red-X phalloidin (2 units/mL) and Alexa Fluor 488 DNase I conjugate (9 μg/mL) were used to localize filamentous actin (F-actin) and G-actin. Fluorescent dyes were diluted with blocking solution (1% bovine serum albumin and 0.025% saponin in PBS) and added to coverslips for 60 min at room temperature. After three washes with PBS, coverslips were mounted on a microscope slide with Prolong Gold antifade reagent with DAPI (Life Technologies). F-actin cytoskeleton imaging was performed with a confocal laser scanning microscope (ZEISS LSM510 BETA) at ×400 magnification.

DU-145 = assay: NCI60 in vitro screening, Prostate Cancer; type: cell-based
IGROV1 = assay: NCI60 in vitro screening, Ovarian Cancer; type: cell-based
OVCAR-3 = assay: NCI60 in vitro screening, Ovarian Cancer; type: cell-based
SR = assay: NCI60 in vitro screening, Leukemia; type: cell-based
MCF7 = assay: NCI60 in vitro screening, Breast Cancer; type: cell-based
SF-539 = assay: NCI60 in vitro screening, CNS Cancer; type: cell-based
NCI-H226 = type: cell-based
UO-31 = assay: NCI60 in vitro screening, Renal Cancer; type: cell-based

B1: GMI: immunomodulatory protein from Ganoderma microsporum, amino acid sequence SEQ ID NO: 3, manufactured by Mycomagic Biotechnology Co., Ltd. (protein, listed as Ganoderma microsporum)
chain: MSDTALIFTLAWNVKQLAFDYTPNWGRGRPSSFIDTVTFPTVLTDKAYTYRVVVSGKDLGVRPSYAVESDGSQKINFLEYNSGYGIADTNTIQVYVIDPDTGNNFIVAQWN
TGI (M14; M14): >1.25E2 | Percent Growth (M14; M14, Log10 Concentration 0.1): 106% | Percent Growth (M14; M14, Log10 Concentration 1.1): 76% | Percent Growth (M14; M14, Log10 Concentration 2.1): 1% | Percent Growth (M14; M14, Log10 Concentration −0.9): 96% | Percent Growth (M14; M14, Log10 Concentration −1.9): 98% | Growth Percent (M14; M14, one dose): 94.87% | GI50 (M14; M14, in µg/mL): 2.78E1 | TGI (RXF 393; RXF 393): 4.72E1 | Percent Growth (RXF 393; RXF 393, Log10 Concentration 0.1): 101% | Percent Growth (RXF 393; RXF 393, Log10 Concentration 1.1): 76% | Percent Growth (RXF 393; RXF 393, Log10 Concentration 2.1): −56% | Percent Growth (RXF 393; RXF 393, Log10 Concentration −0.9): 101% | Percent Growth (RXF 393; RXF 393, Log10 Concentration −1.9): 101% | Growth Percent (RXF 393; RXF 393, one dose): 38.93% | GI50 (RXF 393; RXF 393, in µg/mL): 1.97E1 | LC50 (RXF 393; RXF 393, in µg/mL): 1.13E2 | TGI (OVCAR-5; OVCAR-5): >1.25E2 | Percent Growth (OVCAR-5; OVCAR-5, Log10 Concentration 0.1): 98% | Percent Growth (OVCAR-5; OVCAR-5, Log10 Concentration 1.1): 89% | Percent Growth (OVCAR-5; OVCAR-5, Log10 Concentration 2.1): 66% | Percent Growth (OVCAR-5; OVCAR-5, Log10 Concentration −0.9): 100% | Percent Growth (OVCAR-5; OVCAR-5, Log10 Concentration −1.9): 101% | Growth Percent (OVCAR-5; OVCAR-5, one dose): 107.85% | LC50 (BT-549): 7.24E1 | TGI (BT-549; BT-549): 2.27E1 | Percent Growth (BT-549; BT-549, Log10 Concentration 0.1): 100% | Percent Growth (BT-549; BT-549, Log10 Concentration 1.1): 26% | Percent Growth (BT-549; BT-549, Log10 Concentration 2.1): −74% | Percent Growth (BT-549; BT-549, Log10 Concentration −0.9): 98% | Percent Growth (BT-549; BT-549, Log10 Concentration −1.9): 104% | Growth Percent (BT-549; BT-549, one dose): −74.30% | GI50 (BT-549; BT-549, in µg/mL): 5.89E0 | TGI (MDA-MB-468; MDA-MB-468): 1.18E1 | Percent Growth (MDA-MB-468; MDA-MB-468, Log10 Concentration 0.1): 115% | Percent Growth (MDA-MB-468; MDA-MB-468, Log10 Concentration 1.1): −3% | Percent Growth (MDA-MB-468; MDA-MB-468, Log10 Concentration 2.1): −24% | Percent Growth (MDA-MB-468; MDA-MB-468, Log10 Concentration −0.9): 100% | Percent Growth (MDA-MB-468; MDA-MB-468, Log10 Concentration −1.9): 104% | Growth Percent (MDA-MB-468; MDA-MB-468, one dose): 50.90% | GI50 (MDA-MB-468; MDA-MB-468, in µg/mL): 4.45E0 | elongation and polymerization of F-actin and G-actin (A549 cells; A549 cells treated with EGF or GMI alone): abrogated | filopodia formation (A549 cells; A549 cells, GMI 2, 4, 8 μg/ml, EGF 10 ng/mL): fewer filopodia fibers | focal contact size (A549 cells; A549 cells, GMI alone and combined with EGF): reduced by GMI in a dose-dependent manner | TGI (DU-145; DU-145): >1.25E2 | Percent Growth (DU-145; DU-145, Log10 Concentration 0.1): 109% | Percent Growth (DU-145; DU-145, Log10 Concentration 1.1): 71% | Percent Growth (DU-145; DU-145, Log10 Concentration 2.1): 9% | Percent Growth (DU-145; DU-145, Log10 Concentration −0.9): 99% | Percent Growth (DU-145; DU-145, Log10 Concentration −1.9): 101% | Growth Percent (DU-145; DU-145, one dose): 39.22% | GI50 (DU-145; DU-145, in µg/mL): 2.76E1 | TGI (IGROV1; IGROV1): >1.25E2 | Percent Growth (IGROV1; IGROV1, Log10 Concentration 0.1): 117% | Percent Growth (IGROV1; IGROV1, Log10 Concentration 1.1): 62% | Percent Growth (IGROV1; IGROV1, Log10 Concentration 2.1): 30% | Percent Growth (IGROV1; IGROV1, Log10 Concentration −0.9): 98% | Percent Growth (IGROV1; IGROV1, Log10 Concentration −1.9): 103% | Growth Percent (IGROV1; IGROV1, one dose): 30.07% | GI50 (IGROV1; IGROV1, in µg/mL): 2.94E1 | TGI (OVCAR-3; OVCAR-3): >1.25E2 | Percent Growth (OVCAR-3; OVCAR-3, Log10 Concentration 0.1): 108% | Percent Growth (OVCAR-3; OVCAR-3, Log10 Concentration 1.1): 85% | Percent Growth (OVCAR-3; OVCAR-3, Log10 Concentration 2.1): 26% | Percent Growth (OVCAR-3; OVCAR-3, Log10 Concentration −0.9): 102% | Percent Growth (OVCAR-3; OVCAR-3, Log10 Concentration −1.9): 99% | Growth Percent (OVCAR-3; OVCAR-3, one dose): 94.57% | GI50 (OVCAR-3; OVCAR-3, in µg/mL): 4.90E1 | TGI (SR): >1.25E2 | Percent Growth (SR; Log10 Concentration 0.1): 96% | Percent Growth (SR; Log10 Concentration 1.1): 17% | Percent Growth (SR; Log10 Concentration 2.1): 1% | Percent Growth (SR; Log10 Concentration −0.9): 96% | Percent Growth (SR; Log10 Concentration −1.9): 98% | GI50 (SR; in µg/mL): 4.79E0 | Growth Percent (SR; one dose): 32.47% | TGI (MCF7; MCF7): >1.25E2 | Percent Growth (MCF7; MCF7, Log10 Concentration 0.1): 93% | Percent Growth (MCF7; MCF7, Log10 Concentration 1.1): 49% | Percent Growth (MCF7; MCF7, Log10 Concentration 2.1): 23% | Percent Growth (MCF7; MCF7, Log10 Concentration −0.9): 104% | Percent Growth (MCF7; MCF7, Log10 Concentration −1.9): 100% | Growth Percent (MCF7; MCF7, one dose): 42.68% | GI50 (MCF7; MCF7, in µg/mL): 1.15E1 | TGI (SF-539; SF-539): 6.02E1 | Percent Growth (SF-539; SF-539, Log10 Concentration 0.1): 102% | Percent Growth (SF-539; SF-539, Log10 Concentration 1.1): 80% | Percent Growth (SF-539; SF-539, Log10 Concentration 2.1): −37% | Percent Growth (SF-539; SF-539, Log10 Concentration −0.9): 111% | Percent Growth (SF-539; SF-539, Log10 Concentration −1.9): 108% | Growth Percent (SF-539; SF-539, one dose): 48.19% | GI50 (SF-539; SF-539, in µg/mL): 2.26E1 | TGI (NCI-H226; NCI-H226): >1.25E2 | Percent Growth (NCI-H226; NCI-H226, Log10 Concentration 0.1): 101% | Percent Growth (NCI-H226; NCI-H226, Log10 Concentration 1.1): 65% | Percent Growth (NCI-H226; NCI-H226, Log10 Concentration 2.1): 23% | Percent Growth (NCI-H226; NCI-H226, Log10 Concentration −0.9): 99% | Percent Growth (NCI-H226; NCI-H226, Log10 Concentration −1.9): 100% | Growth Percent (NCI-H226; NCI-H226, one dose): 83.77% | GI50 (NCI-H226; NCI-H226, in µg/mL): 2.90E1 | TGI (UO-31; UO-31): 2.65E1 | Percent Growth (UO-31; UO-31, Log10 Concentration 0.1): 119% | Percent Growth (UO-31; UO-31, Log10 Concentration 1.1): 38% | Percent Growth (UO-31; UO-31, Log10 Concentration 2.1): −77% | Percent Growth (UO-31; UO-31, Log10 Concentration −0.9): 102% | Percent Growth (UO-31; UO-31, Log10 Concentration −1.9): 97% | Growth Percent (UO-31; UO-31, one dose): 14.01% | GI50 (UO-31; UO-31, in µg/mL): 8.79E0 | LC50 (UO-31; UO-31, in µg/mL): 7.22E1
